Read-outs that look alike come from different tables or passages of the source.
Legend:
[1] = molecular target: T1, UP1 (proteolytic product of hnRNP A1) (UniProt P09651 1-196); assay: EMSA
[2] = molecular target: T1, UP1 (proteolytic product of hnRNP A1); assay: EMSA; remark: listed apart in the source

T1 sequence (P09651 1-196): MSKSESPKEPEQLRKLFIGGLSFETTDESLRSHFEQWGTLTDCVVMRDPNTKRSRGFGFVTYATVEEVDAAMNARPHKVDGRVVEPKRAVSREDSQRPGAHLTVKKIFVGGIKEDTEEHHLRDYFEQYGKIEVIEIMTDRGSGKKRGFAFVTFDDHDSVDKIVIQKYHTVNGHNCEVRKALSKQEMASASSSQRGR

UGAGAAGGGCGUAGG (ssRNA) [15-mer telomerase RNA]
binding result [1]: binds | binding result [2]: binds
